This passage reports response results from PMC3517456.

For one test, the target named is Gal4AD-Caf1a (UniProt Q9UIV1). The test can be described thus: yeast two-hybrid (β-galactosidase reporter). Particulars: yeast strain YRG-2, LacZ reporter under five GAL4 consensus sequences; triplicate; parent: est. 8.4; read off a plot.
The target of the next test is Gal4AD-Caf1b (UniProt Q9UFF9). The test can be described thus: yeast two-hybrid (β-galactosidase reporter). Particulars: yeast strain YRG-2, LacZ reporter under five GAL4 consensus sequences; triplicate; parent: est. 25; read off a plot.
UniProt Q9UFF9, sequence (Q9UFF9 whole entry, the tested form may be a part): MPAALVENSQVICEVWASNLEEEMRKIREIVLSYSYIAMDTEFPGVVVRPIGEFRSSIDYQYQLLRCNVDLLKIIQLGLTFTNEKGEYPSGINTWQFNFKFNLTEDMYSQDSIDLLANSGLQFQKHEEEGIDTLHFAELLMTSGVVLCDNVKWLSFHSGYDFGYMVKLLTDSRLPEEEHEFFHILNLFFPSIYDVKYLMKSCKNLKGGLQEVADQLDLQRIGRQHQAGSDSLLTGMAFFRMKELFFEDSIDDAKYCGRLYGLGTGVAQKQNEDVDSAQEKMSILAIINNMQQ

UniProt Q9UIV1, sequence (Q9UIV1 whole entry, the tested form may be a part): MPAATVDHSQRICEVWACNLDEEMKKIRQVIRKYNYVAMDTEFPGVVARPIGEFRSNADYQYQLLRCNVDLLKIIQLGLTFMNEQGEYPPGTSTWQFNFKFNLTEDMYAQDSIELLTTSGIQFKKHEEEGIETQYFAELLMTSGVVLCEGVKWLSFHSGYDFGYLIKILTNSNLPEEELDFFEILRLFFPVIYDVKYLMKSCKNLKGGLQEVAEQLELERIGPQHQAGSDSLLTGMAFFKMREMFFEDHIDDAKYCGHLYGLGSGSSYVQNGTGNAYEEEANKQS

Regarding “Gal4-DNA binding domain-TOB1 (from UniProt P50616) H45A”, the response was 1.7 x10^4 RLU with Gal4AD-Caf1a and 2.8 x10^4 RLU with Gal4AD-Caf1b.
